The supplement of paper PMC9233669
Variants at the floor of the assay were thinned out.

Experiments:
[1] = tested on: biotinyl-Phe-oxazolone; assay: self-aminoacylation, catalytic enhancement (BFO) (fold over background); higher = more active; k-Seq, kA / k0A0; sequences stand for … in GGGAAUGGAUCCACAUCUACGAAUUC…UUCACUGCAGACUUGACGAAGCUG
Outline: (§1)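 The uncatalyzed rate is the low-activity peak of a bimodal Gaussian fit, and catalytic enhancement is median kA divided by it. The kA values came from pseudo-first-order fits, with 1000 bootstraps, of per-sequence fraction reacted measured by streptavidin capture, triplicate qPCR and Illumina sequencing. Mutagenized RNA pools with a 21-nt variable region (0.43 μM) were reacted with each biotinyl-aminoacyl-oxazolone at 2–1250 μM in 50 μL HEPES/NaCl/KCl/MgCl2/CaCl2 buffer with 5% acetonitrile, pH 6.9–7.0, for 90 minutes at room temperature.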

[2] = tested on: biotinyl-Ile-oxazolone; assay: self-aminoacylation, catalytic enhancement (BIO) (fold over background); higher = more active; k-Seq, kA / k0A0; sequences stand for … in GGGAAUGGAUCCACAUCUACGAAUUC…UUCACUGCAGACUUGACGAAGCUG
Outline: as §1

[3] = tested on: biotinyl-Met-oxazolone; assay: self-aminoacylation, catalytic enhancement (BMO) (fold over background); higher = more active; k-Seq, kA / k0A0; sequences stand for … in GGGAAUGGAUCCACAUCUACGAAUUC…UUCACUGCAGACUUGACGAAGCUG
Outline: as §1

[4] = tested on: biotinyl-Val-oxazolone; assay: self-aminoacylation, catalytic enhancement (BVO) (fold over background); higher = more active; k-Seq, kA / k0A0; sequences stand for … in GGGAAUGGAUCCACAUCUACGAAUUC…UUCACUGCAGACUUGACGAAGCUG
Outline: as §1

[5] = tested on: biotinyl-Leu-oxazolone; assay: self-aminoacylation, catalytic enhancement (BLO) (fold over background); higher = more active; k-Seq, kA / k0A0; sequences stand for … in GGGAAUGGAUCCACAUCUACGAAUUC…UUCACUGCAGACUUGACGAAGCUG
Outline: as §1

[6] = tested on: biotinyl-Trp-oxazolone; assay: self-aminoacylation, catalytic enhancement (BWO) (fold over background); higher = more active; k-Seq, kA / k0A0; sequences stand for … in GGGAAUGGAUCCACAUCUACGAAUUC…UUCACUGCAGACUUGACGAAGCUG
Outline: as §1

Row | Sequence | self-aminoacylation [1] | self-aminoacylation [2] | self-aminoacylation [3] | self-aminoacylation [4] | self-aminoacylation [5] | self-aminoacylation [6]
1 | UUCCACCUAGGUCAUCGGGUG [Fam2.2 aminoacylation ribozyme variant] | 48.6 | 5.71 | 7.25 | 5.42 | 7.41 | 7.67
2 | UUGACCCUGGUCAUCGAGUGA [Fam2.1 aminoacylation ribozyme variant] | 129 | 7.37 | 19.9 | 7.21 | 19.1 | 18.7
3 | UUUACACUGGUCAUCGAGUGA [Fam2.1 aminoacylation ribozyme variant] | 23.9 | 3.29 | 5.97 | 3 | 5.04 | 7.26
4 | UUUACCAUGGUCAUCGAGUGA [Fam2.1 aminoacylation ribozyme variant] | 20.9 | 4.43 | 7.28 | 4.57 | 7.39 | 9.91
5 | UUUACCCUCGUCAUCGAGUGA [Fam2.1 aminoacylation ribozyme variant] | 10.2 | 2.46 | 3.25 | 2.35 | 2.68 | 4.02
6 | UUUACCCUGGACAUCGAGUGA [Fam2.1 aminoacylation ribozyme variant] | 14.9 | 2.68 | 4.86 | 3.1 | 4.69 | 5.78
7 | UUUACCCUGGCCAUCGAGUGA [Fam2.1 aminoacylation ribozyme variant] | 16.7 | 2.06 | 3.22 | 2.52 | 3.97 | 5.04
8 | UUUACCCUGGUCAUCGAGUGC [Fam2.1 aminoacylation ribozyme variant] | 16.5 | 2.52 | 6.81 | 2.99 | 6.26 | 5.5
9 | UUUACCCUGGUCAUCGAUUGA [Fam2.1 aminoacylation ribozyme variant] | 0.947 | 1.06 | 0.837 | 1.13 | 1.08 | 1.09
10 | UUUACCCUGGUCAUGGAGUGA [Fam2.1 aminoacylation ribozyme variant] | 9.54 | 2.58 | 3.46 | 2.44 | 3.04 | 3.99
11 | UUUACCCUGGUCCUCGAGUGA [Fam2.1 aminoacylation ribozyme variant] | 17.8 | 1.96 | 4.26 | 2.58 | 3.67 | 4.06
12 | UUUACCUUGGUCAUCGAGUGA [Fam2.1 aminoacylation ribozyme variant] | 18.6 | 3.93 | 5.9 | 4.04 | 5.86 | 8.55
13 | UUUCACCAAGGUCAUCGGGUG [Fam2.2 aminoacylation ribozyme variant] | 58.3 | 5.54 | 9.41 | 6.02 | 10.3 | 10.2
14 | UUUCACCCAGGUCAUCGGGUG [Fam2.2 aminoacylation ribozyme variant] | 35.1 | 3.32 | 4.86 | 4.69 | 4.54 | 5.64
15 | UUUCACCUAGGUCAACGGGUG [Fam2.2 aminoacylation ribozyme variant] | 15.6 | 2.27 | 3 | 2.25 | 2.65 | 3.09
16 | UUUCACCUAGGUCAUCAGGUG [Fam2.2 aminoacylation ribozyme variant] | 1.36 | 1.58 | 1.79 | 1.7 | 1.52 | 1.52
17 | UUUCACCUAGGUCAUCCGGUG [Fam2.2 aminoacylation ribozyme variant] | 35.9 | 4.39 | 4.88 | 4.32 | 5.87 | 6.5
18 | UUUCACCUAGGUCAUCGGGGG [Fam2.2 aminoacylation ribozyme variant] | 21.3 | 3.52 | 2.73 | 3.25 | 4.45 | 3.77
19 | UUUCACCUAGGUCAUCGGGUG [Fam2.2 aminoacylation ribozyme variant] | 103 | 9.15 | 15.9 | 8.76 | 19.5 | 13.4
20 | UUUCACCUAGGUCGUCGGGUG [Fam2.2 aminoacylation ribozyme variant] | 11.2 | 1.9 | 2.75 | 2.27 | 2.44 | 3
21 | UUUCACCUCGGUCAUCGGGUG [Fam2.2 aminoacylation ribozyme variant] | 38.3 | 3.61 | 3.79 | 4.79 | 5.28 | 6.19
22 | UUUCACCUUGGUCAUCGGGUG [Fam2.2 aminoacylation ribozyme variant] | 45.4 | 4.31 | 6.53 | 5.49 | 5.87 | 6.96
23 | UUUCAUCUAGGUCAUCGGGUG [Fam2.2 aminoacylation ribozyme variant] | 33.7 | 4.37 | 5.04 | 4.51 | 6.45 | 6.47
24 | UUUCCCCUGGUCAUCGAGUGA [Fam2.1 aminoacylation ribozyme variant] | 39.1 | 3.26 | 6.12 | 3.87 | 5.44 | 7.7
25 | UUUCUCCUAGGUCAUCGGGUG [Fam2.2 aminoacylation ribozyme variant] | 32.5 | 5.35 | 7.74 | 5.4 | 9.78 | 8.02
